Assay [1] addresses HIV-1 Env of isolate ZM214 (clade C pseudovirus) (HIV-1). Put plainly: cell-based or functional assay.
Assay [2] has as its target HIV-1 Env of isolate PVO.4 (clade B pseudovirus) (HIV-1). Put plainly: cell-based or functional assay.
In assay [3] the target is HIV-1 92UG024 envelope glycoprotein (Env) on pseudovirus (HIV-1 isolate 92UG024 (clade D)). Kind of assay: cell-based or functional assay.
The target of assay [4] is Endo H treated JR-FL gp120 (HIV-1). Kind of assay: ELISA, antigen-coated wells. For orientation: An ELISA detects its analyte on a solid surface through an enzyme-linked reagent.
Assay [5] addresses HIV-1 92UG024 Env (HIV-1). Kind of assay: cell-based or functional assay.
Assay [6] concerns the target HIV-1 MGRM-C-027 Env (HIV-1). Kind of assay: cell-based or functional assay.
For assay [7], the target named is HIV-1 93UG077 Env (HIV-1). Put plainly: cell-based or functional assay.
A further assay deals with HIV-1 JRFL Env (HIV-1). Put plainly: cell-based or functional assay.
In assay [8] the target is HIV-1 CMU02 Env (pseudovirus) (HIV-1 isolate CMU02 (clade AE)). Put plainly: cell-based or functional assay.
Assay [9] deals with HIV-1 NL43 Env (pseudovirus) (HIV-1 isolate NL43 (clade B)). Put plainly: cell-based or functional assay.
Assay [10] concerns the target HIV-1 APV13 Env (pseudovirus) (HIV-1 isolate APV13 (clade B)). Put plainly: cell-based or functional assay.
Assay [11] deals with HIV-1 Env of pseudovirus MGRM-A-006 (subtype A) (HIV-1). Put plainly: cell-based or functional assay.
The target in assay [12] is HIV-1 Env of isolate MGRM-Chronic-B-001 (HIV-1). Kind of assay: cell-based or functional assay.
Assay [13] deals with HIV-1 Env of isolate APV13 (HIV-1). Put plainly: cell-based or functional assay.

Here are results for 6 substances from patent US20250320281A1.

Chain of 1443_C16 (PG16) (TCN-116) (antibody) (VH): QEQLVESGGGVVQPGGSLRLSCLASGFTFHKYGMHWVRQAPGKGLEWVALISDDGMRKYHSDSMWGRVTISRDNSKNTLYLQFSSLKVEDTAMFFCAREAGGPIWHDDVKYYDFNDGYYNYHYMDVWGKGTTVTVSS
Chain of 1443_C16 (PG16) (TCN-116) (antibody) (VL): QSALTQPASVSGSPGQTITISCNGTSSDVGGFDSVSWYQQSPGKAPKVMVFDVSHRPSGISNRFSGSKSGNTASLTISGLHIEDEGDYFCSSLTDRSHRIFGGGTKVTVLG

On to 1443_C16 (PG16) (TCN-116) (antibody), for which the IC50 (neutralization, TZM-bl pseudovirus assay) in assay [1] was greater than 25 µg/mL; in [2], 12.3 µg/mL.
In the case of 1496_C09 (PG9) (TCN-109) (antibody), the neutralization IC50 in assay [3] worked out at 1.91 µg/mL.
For 4838_L06 (PGT-121) (antibody), the EC50 in [4] is greater than 10 µg/mL.
Regarding 4877_D15 (PGT-122) (antibody), in [5], the Neutralization by PGT-122, IC50 is greater than 10 µg/mL; the Neutralization by PGT-122, IC80 was greater than 10 µg/mL; the Neutralization by PGT-122, IC90 was greater than 10 µg/mL; the Neutralization by PGT-122, IC95 is greater than 10 µg/mL. In [6], this substance returned a Neutralization by PGT-122, IC50 of 0.0388 µg/mL; a Neutralization by PGT-122, IC80 of 0.499 µg/mL; a Neutralization by PGT-122, IC90 greater than 10 µg/mL; a Neutralization by PGT-122, IC95 greater than 10 µg/mL. In assay [7], this substance returned a Neutralization by PGT-122, IC50 of 0.191 µg/mL; a Neutralization by PGT-122, IC80 of 0.931 µg/mL; a Neutralization by PGT-122, IC90 of 2.1 µg/mL; a Neutralization by PGT-122, IC95 of 3.88 µg/mL. In the assay with HIV-1 JRFL Env (HIV-1), this substance came in with a Neutralization by PGT-122, IC50 of 0.0471 µg/mL; a Neutralization by PGT-122, IC80 of 0.166 µg/mL; a Neutralization by PGT-122, IC90 of 0.342 µg/mL; a Neutralization by PGT-122, IC95 of 0.659 µg/mL.
In [8], 5123_A06 (PGT-125) (antibody) yielded a Neutralization by PGT-125, IC50 greater than 10 µg/mL; a Neutralization by PGT-125, IC80 greater than 10 µg/mL; a Neutralization by PGT-125, IC90 greater than 10 µg/mL; a Neutralization by PGT-125, IC95 greater than 10 µg/mL. In [9], this substance gave a Neutralization by PGT-125, IC50 greater than 10 µg/mL; a Neutralization by PGT-125, IC80 greater than 10 µg/mL; a Neutralization by PGT-125, IC90 greater than 10 µg/mL; a Neutralization by PGT-125, IC95 greater than 10 µg/mL. In [10], this substance registered a Neutralization by PGT-125, IC50 of 0.0128 µg/mL; a Neutralization by PGT-125, IC80 of 0.0414 µg/mL; a Neutralization by PGT-125, IC90 of 0.0821 µg/mL; a Neutralization by PGT-125, IC95 of 0.154 µg/mL.
Regarding PGV04 (antibody), the IC50, pseudovirus neutralization in [11] came out at 0.244 µg/mL. In addition, the IC50 (µg/mL), pseudovirus neutralization in assay [12] is 0.048 µg/mL; in assay [13], 1.23 µg/mL.

As a reminder, the EC50 is the midpoint of the concentration-response curve.
